Measurements as given in the supplement of paper PMC10126150.
± gives the standard deviation of the averaged measurements.

The sequences below were run on ATP (assay: switch fluorescence ratio, 500 uM ATP over buffer (Cy3 cluster intensity, sum of 5 cycles each) (fold (ratio)); higher = stronger signal-on switching upon ATP binding; sequences stand for … in TCGTCGGCAGCGTCAGATGTGTATAAGAGACAGTTTTTTTTTTTTTTTTTTTTTTTTT…TC). Details: aptamer strand: ATP DNA aptamer (quencher-CACCTGGGGGAGTATTGCGGAGGAAGG + anchor), 100 nM annealed; ATP concentration: 500 uM.
Procedure, shortened: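 Cy3-labelled switching-strand clusters on a modified Illumina MiSeq flow-cell were annealed to 100 nM quencher-labelled ATP aptamer and imaged first in selection buffer, then after 15 min with 500 uM ATP at 22 °C. NaOH stripping and re-annealing separated each of five buffer/ATP cycles, and clusters outside 100-1000 RFU were excluded. The fluorescence ratio sums target-cycle Cy3 intensity over buffer-cycle Cy3 intensity per cluster and averages it per switch-domain sequence.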
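Note: ATP exposure 15 min at 22 °C before imaging.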

**Q.** With GAACTCTTAG as the sequence, how does the switch fluorescence ratio read?
**A.** 1.02 ± 0.019

**Q.** For ACGGGGGGTA, which switch fluorescence ratio is on record?
**A.** 1.02 ± 0.035

**Q.** For TTTATGGGCA, which switch fluorescence ratio is on record?
**A.** 1.04 ± 0.05

**Q.** With ATTAAATCGG as the sequence, how does the switch fluorescence ratio read?
**A.** 1.01 ± 0.016

**Q.** How did the switch fluorescence ratio turn out when GGGGTAAGAT was run?
**A.** 0.963 ± 0.054

**Q.** AGGTTTATTG was tested. Which switch fluorescence ratio did it give?
**A.** 0.993 ± 0.0097

**Q.** TGATTGGGAC was tested. Which switch fluorescence ratio did it give?
**A.** 0.9673 ± 0.0074

**Q.** AAAAGTTGTT was tested. Which switch fluorescence ratio did it give?
**A.** 1.04 ± 0.019

**Q.** With CAATTAAACC as the sequence, how does the switch fluorescence ratio read?
**A.** 1.05 ± 0.028

**Q.** For AAGGCGAGGG, which switch fluorescence ratio is on record?
**A.** 1.01 ± 0.015

**Q.** With CGGTGTGGGT as the sequence, how does the switch fluorescence ratio read?
**A.** 1.03 ± 0.0023

**Q.** Which switch fluorescence ratio does the source give for GTATTTTTGC here?
**A.** 1.02 ± 0.024

**Q.** With CGTTTGTGCG as the sequence, how does the switch fluorescence ratio read?
**A.** 1.01 ± 0.053

**Q.** Which switch fluorescence ratio does the source give for TAGGTTGTCA here?
**A.** 1.04 ± 0.024

**Q.** GGGGGAGTCT was tested. Which switch fluorescence ratio did it give?
**A.** 1.11 ± 0.087

**Q.** For GCGCTAATGT, which switch fluorescence ratio is on record?
**A.** 1.08 ± 0.013

**Q.** TGTGTGATTC was tested. Which switch fluorescence ratio did it give?
**A.** 1.3 ± 0.49

**Q.** For GCGTAAAGTG, which switch fluorescence ratio is on record?
**A.** 0.994 ± 0.038

**Q.** How did the switch fluorescence ratio turn out when CCATTTGACC was run?
**A.** 1.04 ± 0.014

**Q.** Which switch fluorescence ratio does the source give for TGGTTTGTTG here?
**A.** 0.9686 ± 0.0064

**Q.** For TTGAATTGGT, which switch fluorescence ratio is on record?
**A.** 0.995 ± 0.036

**Q.** Which switch fluorescence ratio does the source give for GAGCGAAGGA here?
**A.** 1.01 ± 0.029

**Q.** With TTTTGAGTTT as the sequence, how does the switch fluorescence ratio read?
**A.** 0.984 ± 0.028

**Q.** Which switch fluorescence ratio does the source give for TGGGTTATTA here?
**A.** 1 ± 0.018

**Q.** How did the switch fluorescence ratio turn out when AGATTTTCCG was run?
**A.** 1.01 ± 0.023

**Q.** Which switch fluorescence ratio does the source give for GGAAGAGGTG here?
**A.** 1.09 ± 0.022

**Q.** Which switch fluorescence ratio does the source give for ATATTAGGTT here?
**A.** 0.998 ± 0.018

**Q.** How did the switch fluorescence ratio turn out when CACCCGTGCT was run?
**A.** 1.09 ± 0.016

**Q.** TCCCGAATTT was tested. Which switch fluorescence ratio did it give?
**A.** 1.02 ± 0.016

**Q.** For AAAATTTATT, which switch fluorescence ratio is on record?
**A.** 0.989 ± 0.018

**Q.** TTTCTGGAGA was tested. Which switch fluorescence ratio did it give?
**A.** 1.05 ± 0.05

**Q.** Which switch fluorescence ratio does the source give for GTTTGATAAA here?
**A.** 0.981 ± 0.034

**Q.** For GGAGCGAGAG, which switch fluorescence ratio is on record?
**A.** 3.37 ± 0.28

**Q.** Which switch fluorescence ratio does the source give for CTTTGTCGAG here?
**A.** 1 ± 0.019

**Q.** With TAAGATATTT as the sequence, how does the switch fluorescence ratio read?
**A.** 0.9715 ± 0.0094

**Q.** TCTTTAAAGG was tested. Which switch fluorescence ratio did it give?
**A.** 1.04 ± 0.039

**Q.** TGGGTTTATG was tested. Which switch fluorescence ratio did it give?
**A.** 1 ± 0.03

**Q.** How did the switch fluorescence ratio turn out when TTCTTTGAGA was run?
**A.** 1.006 ± 0.0062

**Q.** How did the switch fluorescence ratio turn out when GCTGCTTAGG was run?
**A.** 0.974 ± 0.018

**Q.** With TGGAAGATGT as the sequence, how does the switch fluorescence ratio read?
**A.** 1.02 ± 0.03

**Q.** AGTGTGTGGA was tested. Which switch fluorescence ratio did it give?
**A.** 1.04 ± 0.021

**Q.** Which switch fluorescence ratio does the source give for ATTGAATATT here?
**A.** 0.9935 ± 0.0015

**Q.** With CGATATACTG as the sequence, how does the switch fluorescence ratio read?
**A.** 1.09 ± 0.074

**Q.** How did the switch fluorescence ratio turn out when TGAGGTCCCA was run?
**A.** 1.01 ± 0.014

**Q.** CAATGAGGAA was tested. Which switch fluorescence ratio did it give?
**A.** 1.02 ± 0.018

**Q.** GCCCGTGGAA was tested. Which switch fluorescence ratio did it give?
**A.** 0.9893 ± 0.0057

**Q.** For GGCTATCGGT, which switch fluorescence ratio is on record?
**A.** 0.978 ± 0.035

**Q.** How did the switch fluorescence ratio turn out when GTTAAAAAAT was run?
**A.** 1.06 ± 0.17

**Q.** GGGGCCTTTA was tested. Which switch fluorescence ratio did it give?
**A.** 0.9592 ± 0.0049

**Q.** With TGTTGATAGT as the sequence, how does the switch fluorescence ratio read?
**A.** 1 ± 0.023

**Q.** For AGCTTGTCAA, which switch fluorescence ratio is on record?
**A.** 0.9774 ± 0.0067

**Q.** How did the switch fluorescence ratio turn out when AGACAATATT was run?
**A.** 0.979 ± 0.032

**Q.** For AGTGAAGCTG, which switch fluorescence ratio is on record?
**A.** 0.996 ± 0.027

**Q.** Which switch fluorescence ratio does the source give for ATATGTAGAG here?
**A.** 1.05 ± 0.046

**Q.** For TGGGGAGTTA, which switch fluorescence ratio is on record?
**A.** 0.992 ± 0.021

**Q.** How did the switch fluorescence ratio turn out when GAAAGGTCTA was run?
**A.** 0.987 ± 0.057

**Q.** ACAGGCTGAG was tested. Which switch fluorescence ratio did it give?
**A.** 0.9973 ± 0.0097

**Q.** Which switch fluorescence ratio does the source give for TATTTCGGGT here?
**A.** 1.01 ± 0.068

**Q.** Which switch fluorescence ratio does the source give for TAAAGGTTGC here?
**A.** 0.984 ± 0.02

**Q.** How did the switch fluorescence ratio turn out when GGGTGATAGA was run?
**A.** 1.01 ± 0.039

**Q.** How did the switch fluorescence ratio turn out when GATGGATAAG was run?
**A.** 1.009 ± 0.0024

**Q.** With AATGGGTTAT as the sequence, how does the switch fluorescence ratio read?
**A.** 0.992 ± 0.025

**Q.** With GACGGACTTT as the sequence, how does the switch fluorescence ratio read?
**A.** 1.143 ± 0.006

**Q.** For CTAAACCTGG, which switch fluorescence ratio is on record?
**A.** 1.13 ± 0.034

**Q.** Which switch fluorescence ratio does the source give for AAACAGTTGT here?
**A.** 1.01 ± 0.055

**Q.** With TTTTGATTAC as the sequence, how does the switch fluorescence ratio read?
**A.** 1.01 ± 0.065

**Q.** With TGGGACCGCG as the sequence, how does the switch fluorescence ratio read?
**A.** 1.03 ± 0.084

**Q.** How did the switch fluorescence ratio turn out when GGATGGTGCT was run?
**A.** 0.948 ± 0.027

**Q.** For CCAGGGCGCG, which switch fluorescence ratio is on record?
**A.** 1.004 ± 0.002

**Q.** How did the switch fluorescence ratio turn out when CTGTTACTGA was run?
**A.** 0.999 ± 0.041

**Q.** TAGGATGGTG was tested. Which switch fluorescence ratio did it give?
**A.** 1.03 ± 0.11

**Q.** For TGGTCGGTAG, which switch fluorescence ratio is on record?
**A.** 0.9855 ± 0.0023

**Q.** TTTGTTGACC was tested. Which switch fluorescence ratio did it give?
**A.** 1.02 ± 0.013

**Q.** With TGTGTTCTGG as the sequence, how does the switch fluorescence ratio read?
**A.** 0.986 ± 0.011

**Q.** Which switch fluorescence ratio does the source give for CGTTTTTGCC here?
**A.** 1.0037 ± 0.00025

**Q.** With GGATCATTCG as the sequence, how does the switch fluorescence ratio read?
**A.** 1.02 ± 0.048

**Q.** How did the switch fluorescence ratio turn out when AAAAGAAACC was run?
**A.** 1.13 ± 0.048

**Q.** Which switch fluorescence ratio does the source give for AGAGCATTGA here?
**A.** 1.013 ± 0.007

**Q.** With ACAGAACAGT as the sequence, how does the switch fluorescence ratio read?
**A.** 1.03 ± 0.016

**Q.** TAATTGGGGG was tested. Which switch fluorescence ratio did it give?
**A.** 1 ± 0.03

**Q.** Which switch fluorescence ratio does the source give for TGAACTAATT here?
**A.** 1.01 ± 0.0099

**Q.** With TGGGTAAACG as the sequence, how does the switch fluorescence ratio read?
**A.** 1.023 ± 0.0035

**Q.** How did the switch fluorescence ratio turn out when ATGTGTTGGG was run?
**A.** 0.973 ± 0.032

**Q.** For ATAGGCGCGC, which switch fluorescence ratio is on record?
**A.** 1.04 ± 0.014

**Q.** How did the switch fluorescence ratio turn out when TGAGTCAATT was run?
**A.** 0.99 ± 0.032

**Q.** For CGGACCATAT, which switch fluorescence ratio is on record?
**A.** 1.11 ± 0.017

**Q.** Which switch fluorescence ratio does the source give for TTTTCAACGG here?
**A.** 1.01 ± 0.0017

**Q.** How did the switch fluorescence ratio turn out when AAATAGGGGA was run?
**A.** 0.989 ± 0.039

**Q.** How did the switch fluorescence ratio turn out when TATCACCATA was run?
**A.** 1.04 ± 0.079

**Q.** Which switch fluorescence ratio does the source give for TGGGTGTGG here?
**A.** 1.015 ± 0.0075

**Q.** Which switch fluorescence ratio does the source give for GGTTCCATGC here?
**A.** 1.1 ± 0.014

**Q.** How did the switch fluorescence ratio turn out when AGATCATGCG was run?
**A.** 1.02 ± 0.045

**Q.** GCTAAAATGG was tested. Which switch fluorescence ratio did it give?
**A.** 0.9916 ± 0.0076

**Q.** With CAGGGTGGGA as the sequence, how does the switch fluorescence ratio read?
**A.** 1.02 ± 0.044

**Q.** How did the switch fluorescence ratio turn out when GCCGGGTCAG was run?
**A.** 1.02 ± 0.026

**Q.** How did the switch fluorescence ratio turn out when ATAATGTTAC was run?
**A.** 1.09 ± 0.029

**Q.** With GGGGGGTAGC as the sequence, how does the switch fluorescence ratio read?
**A.** 0.9761 ± 0.0061

**Q.** For CTAGGCAACG, which switch fluorescence ratio is on record?
**A.** 0.982 ± 0.028

**Q.** How did the switch fluorescence ratio turn out when GGGCTGCATT was run?
**A.** 1.01 ± 0.011

**Q.** For CTGGAAGGGT, which switch fluorescence ratio is on record?
**A.** 1 ± 0.03
